Test system: c-Src
Test: phosphorylation enrichment, bacterial display (enrichment ratio); higher = better substrate or ligand; peptides without Tyr show the background
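For SH2 binding enrichment of the phosphorylated peptide, bacterial display in this document: peptide library displayed on the E. coli surface as eCPX fusions, selected cells deep-sequenced, score is each peptide's frequency after selection divided by its frequency in the input.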
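For phosphorylation enrichment, bacterial display in this document: 11-residue human phosphosite peptides and single-mutation variants displayed on the E. coli surface, counted by deep sequencing, each peptide's frequency after selection divided by its frequency in the unselected input library; frequency after pTyr selection over input frequency; kinase dosed for 20-30% of maximal phosphorylation in three min.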

Sequence | phosphorylation enrichment
GITTGYLVLKE [DNMT3B_Y588_A585T] | 0.371
RIVEIYSRRLQ [GCH1_Y175] | 0.803
VASMFYTLVIP [OR8K3_Y277_I275M] | 1.38
RNNTEYVRDIG [MUSK_Y577_I575T] | 0.328
EEHIPCTHMNG [INSR_Y1361_Y1361C] | 0.497
QMRLKYSQSDL [SMC1A_Y714] | 0.481
PDMHSYVVRFN [GRIN2D_Y732_M733V_YF] | 0.553
FPIDHYLGKEM [G6PD_Y202_R198P_YF] | 0.489
KGLMPYGQPRP [SRRT_Y798_Q793K] | 0.378
LEAFQYIGESQ [MSH2_Y856_E853A] | 0.659
FSDQVYRQHRK [TH_Y230_R233H] | 0.452
ADRNHYRRYPR [YBX1_Y145] | 0.515
EVRTQYEEIAQ [KRT76_Y361_A359T] | 0.376
FLEKFYKFGSR [NNMT_Y25_YF] | 0.365
FEPDAYFDLDQ [ELP5_Y302_D303Y_YF] | 0.584
VVGMLYVGGLP [LAMA2_Y2886] | 0.388
SVETPYVSVTF [NDRG2_Y47_G48V] | 2.05

Sequence | phosphorylation enrichment
LLVVLYKYRCF [PSEN1_Y154_Y159F] | 0.523
DTQNSYGCATS [TSC1_Y304] | 0.555
AESPEYVHMFT [FAM111A_Y511_YF] | 0.443
IKELTYQTEED [MYH7_Y1852] | 0.467
SHLSAFPALEG [CD5_Y465_Y465F] | 0.328
MPLTEYLKRIK [CNGB3_Y200] | 0.325
SEEVTYATLTF [CLEC12B_Y7] | 5.28
SSAAGYACLAF [MVD_Y131_YF] | 0.494
LSNPAYRLLLA [DDR1_Y513] | 1.21
TLLERYGMTEI [ACSF3_Y355] | 0.418
CTTIHCNFMCN [TP53_Y234_Y234C_YF] | 0.441
NCFKYYMSDDI [ATRX_Y204] | 0.811
SECCKYKIDNL [OSMR_Y689_P694L] | 0.436
PVGVLYEVKVF [PTS_Y128_K129E_YF] | 0.89
KLKEKYQKDIA [HMGB1_Y155_E156Q] | 0.582
AKVKPYINGTS [IBTK_Y1064_V1065I] | 0.294

Biological target: Grb2 SH2 (UniProt P62993)
Test: SH2 binding enrichment of the phosphorylated peptide, bacterial display (enrichment ratio); higher = better substrate or ligand; peptides without Tyr show the background

Grb2 SH2, sequence (P62993 whole entry, looked up): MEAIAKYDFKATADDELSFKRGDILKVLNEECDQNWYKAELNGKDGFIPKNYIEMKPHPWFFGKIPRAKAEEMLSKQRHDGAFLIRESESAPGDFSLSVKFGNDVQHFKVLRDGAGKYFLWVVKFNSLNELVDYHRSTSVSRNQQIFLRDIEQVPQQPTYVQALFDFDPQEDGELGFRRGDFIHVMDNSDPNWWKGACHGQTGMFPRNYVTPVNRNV

Sequence | SH2 binding enrichment
GITTGYLVLKE [DNMT3B_Y588_A585T] | 0.907
RIVEIYSRRLQ [GCH1_Y175] | 0.789
VASMFYTLVIP [OR8K3_Y277_I275M] | 1.22
RNNTEYVRDIG [MUSK_Y577_I575T] | 0.834
EEHIPCTHMNG [INSR_Y1361_Y1361C] | 0.709
QMRLKYSQSDL [SMC1A_Y714] | 0.871
PDMHSYVVRFN [GRIN2D_Y732_M733V_YF] | 1.29
FPIDHYLGKEM [G6PD_Y202_R198P_YF] | 0.908
KGLMPYGQPRP [SRRT_Y798_Q793K] | 0.923
LEAFQYIGESQ [MSH2_Y856_E853A] | 0.979
FSDQVYRQHRK [TH_Y230_R233H] | 1.03
ADRNHYRRYPR [YBX1_Y145] | 0.748
EVRTQYEEIAQ [KRT76_Y361_A359T] | 0.882
FLEKFYKFGSR [NNMT_Y25_YF] | 0.883
FEPDAYFDLDQ [ELP5_Y302_D303Y_YF] | 0.814
VVGMLYVGGLP [LAMA2_Y2886] | 0.78
SVETPYVSVTF [NDRG2_Y47_G48V] | 0.632

Sequence | SH2 binding enrichment
LLVVLYKYRCF [PSEN1_Y154_Y159F] | 1.63
DTQNSYGCATS [TSC1_Y304] | 0.867
AESPEYVHMFT [FAM111A_Y511_YF] | 0.878
IKELTYQTEED [MYH7_Y1852] | 0.879
SHLSAFPALEG [CD5_Y465_Y465F] | 0.734
MPLTEYLKRIK [CNGB3_Y200] | 1.01
SEEVTYATLTF [CLEC12B_Y7] | 0.845
SSAAGYACLAF [MVD_Y131_YF] | 0.732
LSNPAYRLLLA [DDR1_Y513] | 1.06
TLLERYGMTEI [ACSF3_Y355] | 0.907
CTTIHCNFMCN [TP53_Y234_Y234C_YF] | 1.22
NCFKYYMSDDI [ATRX_Y204] | 0.97
SECCKYKIDNL [OSMR_Y689_P694L] | 0.739
PVGVLYEVKVF [PTS_Y128_K129E_YF] | 0.992
KLKEKYQKDIA [HMGB1_Y155_E156Q] | 1.24
AKVKPYINGTS [IBTK_Y1064_V1065I] | 0.999

Biological target: SHP2-C SH2
Test: as above

Sequence | SH2 binding enrichment
GITTGYLVLKE [DNMT3B_Y588_A585T] | 2.06
RIVEIYSRRLQ [GCH1_Y175] | 0.879
VASMFYTLVIP [OR8K3_Y277_I275M] | 1.13
RNNTEYVRDIG [MUSK_Y577_I575T] | 0.645
EEHIPCTHMNG [INSR_Y1361_Y1361C] | 0.7
QMRLKYSQSDL [SMC1A_Y714] | 0.703
PDMHSYVVRFN [GRIN2D_Y732_M733V_YF] | 1
FPIDHYLGKEM [G6PD_Y202_R198P_YF] | 0.716
KGLMPYGQPRP [SRRT_Y798_Q793K] | 0.986
LEAFQYIGESQ [MSH2_Y856_E853A] | 0.682
FSDQVYRQHRK [TH_Y230_R233H] | 0.539
ADRNHYRRYPR [YBX1_Y145] | 0.299
EVRTQYEEIAQ [KRT76_Y361_A359T] | 0.967
FLEKFYKFGSR [NNMT_Y25_YF] | 0.789
FEPDAYFDLDQ [ELP5_Y302_D303Y_YF] | 0.499
VVGMLYVGGLP [LAMA2_Y2886] | 0.785
SVETPYVSVTF [NDRG2_Y47_G48V] | 0.827

Sequence | SH2 binding enrichment
LLVVLYKYRCF [PSEN1_Y154_Y159F] | 1.61
DTQNSYGCATS [TSC1_Y304] | 0.918
AESPEYVHMFT [FAM111A_Y511_YF] | 0.564
IKELTYQTEED [MYH7_Y1852] | 0.832
SHLSAFPALEG [CD5_Y465_Y465F] | 0.751
MPLTEYLKRIK [CNGB3_Y200] | 0.75
SEEVTYATLTF [CLEC12B_Y7] | 2.52
SSAAGYACLAF [MVD_Y131_YF] | 10
LSNPAYRLLLA [DDR1_Y513] | 1.01
TLLERYGMTEI [ACSF3_Y355] | 0.866
CTTIHCNFMCN [TP53_Y234_Y234C_YF] | 0.889
NCFKYYMSDDI [ATRX_Y204] | 0.799
SECCKYKIDNL [OSMR_Y689_P694L] | 0.477
PVGVLYEVKVF [PTS_Y128_K129E_YF] | 0.836
KLKEKYQKDIA [HMGB1_Y155_E156Q] | 1.91
AKVKPYINGTS [IBTK_Y1064_V1065I] | 1.05

Biological target: c-Src SH2
Test: as above

Sequence | SH2 binding enrichment
GITTGYLVLKE [DNMT3B_Y588_A585T] | 0.746
RIVEIYSRRLQ [GCH1_Y175] | 0.617
VASMFYTLVIP [OR8K3_Y277_I275M] | 0.783
RNNTEYVRDIG [MUSK_Y577_I575T] | 0.745
EEHIPCTHMNG [INSR_Y1361_Y1361C] | 0.649
QMRLKYSQSDL [SMC1A_Y714] | 0.597
PDMHSYVVRFN [GRIN2D_Y732_M733V_YF] | 1.25
FPIDHYLGKEM [G6PD_Y202_R198P_YF] | 0.497
KGLMPYGQPRP [SRRT_Y798_Q793K] | 0.558
LEAFQYIGESQ [MSH2_Y856_E853A] | 0.506
FSDQVYRQHRK [TH_Y230_R233H] | 0.624
ADRNHYRRYPR [YBX1_Y145] | 0.403
EVRTQYEEIAQ [KRT76_Y361_A359T] | 20.6
FLEKFYKFGSR [NNMT_Y25_YF] | 0.428
FEPDAYFDLDQ [ELP5_Y302_D303Y_YF] | 0.501
VVGMLYVGGLP [LAMA2_Y2886] | 0.461
SVETPYVSVTF [NDRG2_Y47_G48V] | 0.485

Sequence | SH2 binding enrichment
LLVVLYKYRCF [PSEN1_Y154_Y159F] | 1.29
DTQNSYGCATS [TSC1_Y304] | 0.595
AESPEYVHMFT [FAM111A_Y511_YF] | 0.528
IKELTYQTEED [MYH7_Y1852] | 0.52
SHLSAFPALEG [CD5_Y465_Y465F] | 0.529
MPLTEYLKRIK [CNGB3_Y200] | 0.489
SEEVTYATLTF [CLEC12B_Y7] | 0.481
SSAAGYACLAF [MVD_Y131_YF] | 1.55
LSNPAYRLLLA [DDR1_Y513] | 0.582
TLLERYGMTEI [ACSF3_Y355] | 0.462
CTTIHCNFMCN [TP53_Y234_Y234C_YF] | 0.837
NCFKYYMSDDI [ATRX_Y204] | 1.52
SECCKYKIDNL [OSMR_Y689_P694L] | 0.43
PVGVLYEVKVF [PTS_Y128_K129E_YF] | 0.611
KLKEKYQKDIA [HMGB1_Y155_E156Q] | 1.11
AKVKPYINGTS [IBTK_Y1064_V1065I] | 0.737

Reference: the supplement of paper PMC10065799, “High-throughput profiling of sequence recognition by tyrosine kinases and SH2 domains using bacterial peptide display” (eLife, 2023)
